According to patent US20250304927A1, “PRO-PEPTIDE VARIANTS FOR MODULATING ACTIVITY OF TRANSGLUTAMINASES” (CURIE CO. INC., priority 2022, published 2025):

T1: thermostable variant of Streptomyces mobaraensis transglutaminase (Streptomyces mobaraensis, UniProt P81453 79-407)
T1 sequence: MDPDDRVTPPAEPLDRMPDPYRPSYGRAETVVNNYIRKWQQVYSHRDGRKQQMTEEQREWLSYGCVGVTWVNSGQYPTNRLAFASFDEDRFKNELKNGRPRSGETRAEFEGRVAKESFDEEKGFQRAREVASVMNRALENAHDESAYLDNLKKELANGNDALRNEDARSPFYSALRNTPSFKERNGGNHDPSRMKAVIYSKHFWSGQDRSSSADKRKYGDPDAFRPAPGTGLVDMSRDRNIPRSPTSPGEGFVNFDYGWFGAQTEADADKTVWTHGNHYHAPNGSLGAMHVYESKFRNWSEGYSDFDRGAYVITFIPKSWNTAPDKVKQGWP


Molecular target: T1, thermostable variant of Streptomyces …
Test: cell-based or functional assay

Row | Binder | Improvement in pH responsiveness of inhibitory peptide relative to WT
1 | MINGAGEETKSYAETYRLTADDVANINALNESAPAASSAGPSFRAP [pro-peptide variant D2I] | > 1.2 fold
2 | MDNGAGECTKSYAETYRLTADDVANINALNESAPAASSAGPSFRAP [pro-peptide variant E8C] | > 1.2 fold
3 | MDNGAGLETKSYAETYRLTADDVANINALNESAPAASSAGPSFRAP [pro-peptide variant E7L] | > 1.2 fold
4 | MDNGAGEEKKSYAETYRLTADDVANINALNESAPAASSAGPSFRAP [pro-peptide variant T9K] | > 1.2 fold
5 | MDNGAGEELKSYAETYRLTADDVANINALNESAPAASSAGPSFRAP [pro-peptide variant T9L] | > 1.2 fold
6 | MDNGAGEEGKSYAETYRLTADDVANINALNESAPAASSAGPSFRAP [pro-peptide variant T9G] | > 1.2 fold
7 | MDNGAGEEVKSYAETYRLTADDVANINALNESAPAASSAGPSFRAP [pro-peptide variant T9V] | > 1.2 fold
8 | MDNGAGEEWKSYAETYRLTADDVANINALNESAPAASSAGPSFRAP [pro-peptide variant T9W] | > 1.2 fold
9 | MSNGAGEETKSYAETYRLTADDVANINALNESAPAASSAGPSFRAP [pro-peptide variant D2S] | > 1.2 fold
10 | MDNGAGELTKSYAETYRLTADDVANINALNESAPAASSAGPSFRAP [pro-peptide variant E8L] | > 1.2 fold
11 | MDNGAGVETKSYAETYRLTADDVANINALNESAPAASSAGPSFRAP [pro-peptide variant E7V] | > 5 fold
12 | MDNGAGTETKSYAETYRLTADDVANINALNESAPAASSAGPSFRAP [pro-peptide variant E7T] | > 1.2 fold
13 | MDNGAGSETKSYAETYRLTADDVANINALNESAPAASSAGPSFRAP [pro-peptide variant E7S] | > 5 fold
14 | MDNGAGETTKSYAETYRLTADDVANINALNESAPAASSAGPSFRAP [pro-peptide variant E8T] | > 1.2 fold
15 | MDNGAGENTKSYAETYRLTADDVANINALNESAPAASSAGPSFRAP [pro-peptide variant E8N] | > 1.2 fold
16 | MDNGAGEEHKSYAETYRLTADDVANINALNESAPAASSAGPSFRAP [pro-peptide variant T9H] | > 1.2 fold
17 | MDNGAGEEAKSYAETYRLTADDVANINALNESAPAASSAGPSFRAP [pro-peptide variant T9A] | > 1.2 fold
18 | MDNGAGEQTKSYAETYRLTADDVANINALNESAPAASSAGPSFRAP [pro-peptide variant E8Q] | > 5 fold
19 | MDNGAGEETKSYAETYRLTADDVANINALNESAPAASSAGPSFRA [pro-peptide truncation variant ΔP46] | > 1.2 fold

Further lines, results first:

Row | Improvement in pH responsiveness of inhibitory peptide relative to WT | Binder
20 | > 1.2 fold | MDNGAGCETKSYAETYRLTADDVANINALNESAPAASSAGPSFRAP [pro-peptide variant E7C]
21 | > 1.2 fold | MDNGAGEERKSYAETYRLTADDVANINALNESAPAASSAGPSFRAP [pro-peptide variant T9R]
22 | > 1.2 fold | MDNGAGEEYKSYAETYRLTADDVANINALNESAPAASSAGPSFRAP [pro-peptide variant T9Y]
23 | > 1.2 fold | MQNGAGEETKSYAETYRLTADDVANINALNESAPAASSAGPSFRAP [pro-peptide variant D2Q]
24 | > 1.2 fold | MDNGAGERTKSYAETYRLTADDVANINALNESAPAASSAGPSFRAP [pro-peptide variant E8R]
25 | > 1.2 fold | MTNGAGEETKSYAETYRLTADDVANINALNESAPAASSAGPSFRAP [pro-peptide variant D2T]
26 | > 5 fold | MPNGAGEETKSYAETYRLTADDVANINALNESAPAASSAGPSFRAP [pro-peptide variant D2P]
27 | > 5 fold | MDNGAGNETKSYAETYRLTADDVANINALNESAPAASSAGPSFRAP [pro-peptide variant E7N]

Molecular target: T1, thermostable variant of Streptomyces …
Test: cell-based or functional assay
Remark: another data set of the same source

Row | Binder | Improvement in binding affinity of inhibitory peptide relative to WT
28 | MINGAGEETKSYAETYRLTADDVANINALNESAPAASSAGPSFRAP [pro-peptide variant D2I] | > 1.2 fold
29 | MDNGAGECTKSYAETYRLTADDVANINALNESAPAASSAGPSFRAP [pro-peptide variant E8C] | > 1.2 fold
30 | MDNGAGLETKSYAETYRLTADDVANINALNESAPAASSAGPSFRAP [pro-peptide variant E7L] | > 1.2 fold
31 | MDNGAGEETKSYAETYRLTADDVANVNALNESAPAASSAGPSFRAP [pro-peptide variant I26V] | > 1.2 fold
32 | MDNGAGEEKKSYAETYRLTADDVANINALNESAPAASSAGPSFRAP [pro-peptide variant T9K] | > 1.2 fold
33 | MDNGAGDETKSYAETYRLTADDVANINALNESAPAASSAGPSFRAP [pro-peptide variant E7D] | > 1.2 fold
34 | MDNGAGEELKSYAETYRLTADDVANINALNESAPAASSAGPSFRAP [pro-peptide variant T9L] | > 1.2 fold
35 | MDNGAGEEGKSYAETYRLTADDVANINALNESAPAASSAGPSFRAP [pro-peptide variant T9G] | > 1.2 fold
36 | MDNGAGHETKSYAETYRLTADDVANINALNESAPAASSAGPSFRAP [pro-peptide variant E7H] | > 1.2 fold
37 | MDNGAGEECKSYAETYRLTADDVANINALNESAPAASSAGPSFRAP [pro-peptide variant T9C] | > 1.2 fold
38 | MDNGAGEEVKSYAETYRLTADDVANINALNESAPAASSAGPSFRAP [pro-peptide variant T9V] | > 1.2 fold
39 | MDNGAGEEWKSYAETYRLTADDVANINALNESAPAASSAGPSFRAP [pro-peptide variant T9W] | > 1.2 fold
40 | MSNGAGEETKSYAETYRLTADDVANINALNESAPAASSAGPSFRAP [pro-peptide variant D2S] | > 1.2 fold
41 | MDNGAGELTKSYAETYRLTADDVANINALNESAPAASSAGPSFRAP [pro-peptide variant E8L] | > 1.2 fold
42 | MDNGAGVETKSYAETYRLTADDVANINALNESAPAASSAGPSFRAP [pro-peptide variant E7V] | > 1.2 fold
43 | MDNGAGEEDKSYAETYRLTADDVANINALNESAPAASSAGPSFRAP [pro-peptide variant T9D] | > 1.2 fold
44 | MDNGAGTETKSYAETYRLTADDVANINALNESAPAASSAGPSFRAP [pro-peptide variant E7T] | > 1.2 fold
45 | MDNGAGSETKSYAETYRLTADDVANINALNESAPAASSAGPSFRAP [pro-peptide variant E7S] | > 1.2 fold
46 | MDNGAGETTKSYAETYRLTADDVANINALNESAPAASSAGPSFRAP [pro-peptide variant E8T] | > 1.2 fold
47 | MDNGAGENTKSYAETYRLTADDVANINALNESAPAASSAGPSFRAP [pro-peptide variant E8N] | > 1.2 fold
48 | MDNGAGEITKSYAETYRLTADDVANINALNESAPAASSAGPSFRAP [pro-peptide variant E8I] | > 1.2 fold
49 | MDNGAGEEHKSYAETYRLTADDVANINALNESAPAASSAGPSFRAP [pro-peptide variant T9H] | > 1.2 fold
50 | MDNGAGEETKSYAETYRFTADDVANINALNESAPAASSAGPSFRAP [pro-peptide variant L18F] | > 1.2 fold
51 | MDNGAGEEAKSYAETYRLTADDVANINALNESAPAASSAGPSFRAP [pro-peptide variant T9A] | > 1.2 fold
52 | MDNGAGEETKSYAETYRLTADHVANINALNESAPAASSAGPSFRAP [pro-peptide variant D22H] | > 1.2 fold
53 | MDNGAGEQTKSYAETYRLTADDVANINALNESAPAASSAGPSFRAP [pro-peptide variant E8Q] | > 1.2 fold
54 | MDNGAGEVTKSYAETYRLTADDVANINALNESAPAASSAGPSFRAP [pro-peptide variant E8V] | > 1.2 fold
55 | MDNGAGEETKSYAETYRLTADDVANINALNESAPAASSAGPSFRA [pro-peptide truncation variant ΔP46] | > 1.2 fold

Further lines, results first:

Row | Improvement in binding affinity of inhibitory peptide relative to WT | Binder
56 | > 1.2 fold | MDNGAGEETKSYAETYRLTAKDVANINALNESAPAASSAGPSFRAP [pro-peptide variant D21K]
57 | > 1.2 fold | MDNGAGCETKSYAETYRLTADDVANINALNESAPAASSAGPSFRAP [pro-peptide variant E7C]
58 | > 1.2 fold | MDNGAGEERKSYAETYRLTADDVANINALNESAPAASSAGPSFRAP [pro-peptide variant T9R]
59 | > 1.2 fold | MDNGAGEETKSYAETYRLTADDVMNINALNESAPAASSAGPSFRAP [pro-peptide variant A24M]
60 | > 1.2 fold | MDNGAGRETKSYAETYRLTADDVANINALNESAPAASSAGPSFRAP [pro-peptide variant E7R]
61 | > 1.2 fold | MDNGAGEEIKSYAETYRLTADDVANINALNESAPAASSAGPSFRAP [pro-peptide variant T9I]
62 | > 1.2 fold | MDNGAGEEPKSYAETYRLTADDVANINALNESAPAASSAGPSFRAP [pro-peptide variant T9P]
63 | > 1.2 fold | MDNGAGEEYKSYAETYRLTADDVANINALNESAPAASSAGPSFRAP [pro-peptide variant T9Y]
64 | > 1.2 fold | MQNGAGEETKSYAETYRLTADDVANINALNESAPAASSAGPSFRAP [pro-peptide variant D2Q]
65 | > 1.2 fold | MDNGAGEETKSYAEQYRLTADDVANINALNESAPAASSAGPSFRAP [pro-peptide variant T15Q]
66 | > 1.2 fold | MDNGAGERTKSYAETYRLTADDVANINALNESAPAASSAGPSFRAP [pro-peptide variant E8R]
67 | > 1.2 fold | MDNGAGEETKSYAETYRLTADNVANINALNESAPAASSAGPSFRAP [pro-peptide variant D22N]
68 | > 1.2 fold | MTNGAGEETKSYAETYRLTADDVANINALNESAPAASSAGPSFRAP [pro-peptide variant D2T]
69 | > 1.2 fold | MPNGAGEETKSYAETYRLTADDVANINALNESAPAASSAGPSFRAP [pro-peptide variant D2P]
70 | > 1.2 fold | MDNGAGNETKSYAETYRLTADDVANINALNESAPAASSAGPSFRAP [pro-peptide variant E7N]
71 | > 1.2 fold | MDNGAGEEEKSYAETYRLTADDVANINALNESAPAASSAGPSFRAP [pro-peptide variant T9E]
